Where two headings read alike, the source gives them in different places. Each block holds one binder with its values, some of them ahead of it. Non-standard residues stand in square brackets, D forms with d. Primed or numbered codes have the meaning given here. No end group written: not given here. APC = aminopyrrolidine carboxylic acid (2-aminopyrrolidine-4-carboxylic acid); ACPC″ = 2-aminocyclopentane carboxylic acid (X); ACPC = 2-aminocyclopentane carboxylic acid; β3hW = N[C@H](CC(=O)O)Cc1c[nH]c2ccccc12; hArg = N=C(N)NCCCC[C@H](N)C(=O)O; β3hE = N[C@@H](CCC(=O)O)CC(=O)O; β3hF = N[C@H](CC(=O)O)Cc1ccccc1; β3hL = CC(C)C[C@H](N)CC(=O)O; β3hK = NCCCC[C@H](N)CC(=O)O; β3hM = CSCC[C@H](N)CC(=O)O; β3hD = NC(CC(=O)O)CC(=O)O; β3hS = N[C@@H](CO)CC(=O)O; Aib = CC(C)(N)C(=O)O
Assays:
Test in all cases: cell-based or functional assay
[1] = molecular target: T1, rat parathyroid hormone receptor 1, wild-type (rPTHR-1) (rat, UniProt P25961 27-591)
T1 sequence (looked up): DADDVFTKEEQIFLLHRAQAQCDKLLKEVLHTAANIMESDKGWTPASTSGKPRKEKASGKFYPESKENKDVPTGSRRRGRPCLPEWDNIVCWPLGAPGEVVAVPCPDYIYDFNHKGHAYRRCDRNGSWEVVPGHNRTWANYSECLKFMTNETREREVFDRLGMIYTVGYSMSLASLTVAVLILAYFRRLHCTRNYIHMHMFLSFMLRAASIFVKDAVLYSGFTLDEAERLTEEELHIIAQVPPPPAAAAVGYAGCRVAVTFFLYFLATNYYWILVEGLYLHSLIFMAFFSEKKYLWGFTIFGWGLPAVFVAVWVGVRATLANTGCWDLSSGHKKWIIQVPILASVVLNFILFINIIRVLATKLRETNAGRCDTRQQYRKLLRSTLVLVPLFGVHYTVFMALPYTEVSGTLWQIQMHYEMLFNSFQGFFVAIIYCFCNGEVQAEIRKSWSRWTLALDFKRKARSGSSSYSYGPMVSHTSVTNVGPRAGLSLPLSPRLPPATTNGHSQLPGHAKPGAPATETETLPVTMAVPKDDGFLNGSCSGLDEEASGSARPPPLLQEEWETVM

[2] = molecular target: T2, delNT PTHR1 (human, UniProt Q03431 27-593)
T2 sequence (looked up): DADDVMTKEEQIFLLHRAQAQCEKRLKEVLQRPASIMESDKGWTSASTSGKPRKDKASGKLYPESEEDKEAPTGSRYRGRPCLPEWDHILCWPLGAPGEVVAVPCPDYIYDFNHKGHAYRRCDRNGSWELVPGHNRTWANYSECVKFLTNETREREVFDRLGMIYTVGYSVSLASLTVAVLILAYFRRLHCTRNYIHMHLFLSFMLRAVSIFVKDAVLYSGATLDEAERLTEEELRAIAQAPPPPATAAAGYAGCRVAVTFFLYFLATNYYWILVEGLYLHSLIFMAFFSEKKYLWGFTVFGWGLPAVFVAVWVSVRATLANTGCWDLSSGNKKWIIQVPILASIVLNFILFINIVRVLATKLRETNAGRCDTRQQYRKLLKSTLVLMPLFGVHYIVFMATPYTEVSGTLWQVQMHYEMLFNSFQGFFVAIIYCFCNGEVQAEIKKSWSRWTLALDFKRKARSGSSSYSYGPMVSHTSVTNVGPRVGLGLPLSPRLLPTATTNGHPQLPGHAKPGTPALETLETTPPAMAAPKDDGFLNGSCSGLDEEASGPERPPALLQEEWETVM

[3] = molecular target: T3, PTHR-1 (species and cells not stated for the assay) (Homo sapiens (Human), UniProt Q03431 27-593)
T3 sequence: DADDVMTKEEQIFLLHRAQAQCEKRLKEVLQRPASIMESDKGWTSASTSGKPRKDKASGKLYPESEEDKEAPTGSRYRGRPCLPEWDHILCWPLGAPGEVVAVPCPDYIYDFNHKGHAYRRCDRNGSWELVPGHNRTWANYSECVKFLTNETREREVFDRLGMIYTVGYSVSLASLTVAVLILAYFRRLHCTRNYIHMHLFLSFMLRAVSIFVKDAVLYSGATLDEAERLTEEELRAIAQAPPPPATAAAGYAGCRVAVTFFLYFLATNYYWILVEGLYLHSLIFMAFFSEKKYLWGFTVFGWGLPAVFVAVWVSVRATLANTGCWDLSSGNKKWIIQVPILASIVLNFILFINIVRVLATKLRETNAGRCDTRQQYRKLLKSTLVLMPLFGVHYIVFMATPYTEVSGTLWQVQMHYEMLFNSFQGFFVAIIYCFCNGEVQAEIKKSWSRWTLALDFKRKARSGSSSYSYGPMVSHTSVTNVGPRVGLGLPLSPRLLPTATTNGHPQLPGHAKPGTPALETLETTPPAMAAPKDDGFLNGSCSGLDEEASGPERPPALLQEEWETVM

[4] = molecular target: T3, PTHR-1 (species and cells not stated …); remark: listed apart in the source

cAMP Max [1]: 43 cps × 10-3
Binder: SVSEIQLMHNLGKHLNSMERVEWLRKKLQDVHNF-NH2 (also: five β3 residues, αααβ pattern, positions not given here) [D5]

cAMP EC50 [2]: 20000 nM
Binder: SVSEIQL[β3hM]HNLGKHLNSMERVEWLRKKLQDVHNF-NH2 [β3Met(8) PTH(1-34)]

cAMP EC50 [2]: 15000 nM
Binder: SVS[β3hE]IQLMHNLGKHLNSMERVEWLRKKLQDVHNF-NH2 [β3Glu(4) PTH(1-34)]

Fold PTH [3]: 1.7 fold
cAMP EC50 [3]: 0.14 nM
Binder: [ACPC]VSEIQ[ACPC]MHNLGKHLNSMERVEWLRKKLQDVHNF-NH2 [ACPC(1,7)]

Fold PTH [3]: 22.6 fold
cAMP EC50 [3]: 1.84 nM
B1: D6_ACPC(1,7) (peptide)
peptide: [ACPC]VSEIQ[ACPC]MHNLGKWLNSMERVEWLRKKLQDVHNF-NH2
modifications: not fully specified; printed as XVSEIQXMHNLGKWLNSMERVEWLRKKLQDVHNF-NH2; also: D6 β3 residues, positions not shown (marking lost)

cAMP EC50 [2]: 340000 nM
Binder: SV[β3hS]EIQLMHNLGKHLNSMERVEWLRKKLQDVHNF-NH2 [β3Ser(3) PTH(1-34)]

Fold PTH [2]: 510 fold
cAMP EC50 [2]: 32000 nM
Binder: SVS[ACPC]IQLMHNLGKHLNSMERVEWLRKKLQDVHNF-NH2 [ACPC(4) PTH(1-34)]

Fold PTH [4]: 10.2 fold
cAMP EC50 [4]: 0.83 nM
Binder: [ACPC″]V[Aib]EIQ[ACPC″]MHQ[hArg]AK[β3hW]LNS[β3hM]RRV[β3hE]WLR[β3hK]KLQ[β3hD]VHN[β3hF]-NH2 (also: β3 residues (bold, underlined) not marked in the text) [M-D6_ACPC(1,7)]

cAMP Max [1]: 65 cps × 10-3
Binder: SVSEIQLMHNLGKHLNSMERVEWLRKKLQDVHNF-NH2 (also: three β3 residues, αααβ pattern, positions not given here) [D3]

Fold PTH [2]: 87 fold
cAMP EC50 [2]: 5400 nM
Binder: SVSEIQLMZNLGKHLNSMERVEWLRKKLQDVHNF (APC (Z) at 9; C-terminal amide) [APC(9) PTH(1-34)]

Fold PTH [3]: 7.3 fold
cAMP EC50 [3]: 0.59 nM
B2: CycD6_ACPC(1,7) (peptide)
peptide: [ACPC]VSEIQ[ACPC]MHNLGK[ACPC]LNS[ACPC]ERVEWLR[APC]KLQDVHN[ACPC]-NH2
modifications: not fully specified; printed as XVSEIQXMHNLGKXLNSXERVEWLRZKLQDVHNX-NH2; also: further β3 residues, positions not shown (marking lost)

Fold PTH [4]: 6.3 fold
cAMP EC50 [4]: 0.51 nM
Binder: AVAEIQ[ACPC″]MHQ[hArg]AK[ACPC″]LNS[ACPC″]RRV[APC]WLR[APC]KLQ[ACPC″]VHN[ACPC″]-NH2 [M-FcycD6]

Fold PTH [3]: 1.3 fold
cAMP EC50 [3]: 0.1 nM
Binder: SVSEIQLMHNLGK[ACPC″]LNS[ACPC″]ERV[β3hE]WLR[APC]KLQ[β3hD]VHN[ACPC″]-NH2 (also: β3 residues (bold, underlined) not marked in the text) [cycD6]

Fold PTH [4]: 4.9 fold
cAMP EC50 [4]: 0.4 nM
Binder: [ACPC″]V[Aib]E[ACPC″]Q[ACPC″]MHQ[hArg]AKWLNSMRRVEWLRKKLQDVHNF-NH2 [M-ACPC(1,5,7)]

cAMP EC50 [2]: 67000 nM
Binder: SVSEIQ[β3hL]MHNLGKHLNSMERVEWLRKKLQDVHNF-NH2 [β3Leu(7) PTH(1-34)]

cAMP Max [1]: 68 cps × 10-3
Binder: SVSEIQLMHNLGKHLNSMERVEWLRKKLQDVHNF-NH2 (also: three β3 residues, αααβ pattern, positions not given here) [C3]

Fold PTH [4]: 9.7 fold
cAMP EC50 [4]: 0.79 nM
Binder: [ACPC″]V[Aib]E[ACPC″]Q[ACPC″]MHQ[hArg]AK[β3hW]LNS[β3hM]RRV[β3hE]WLR[β3hK]KLQ[β3hD]VHN[β3hF]-NH2 (also: β3 residues (bold, underlined) not marked in the text) [M-X1,5,7-D6]

Fold PTH [3]: 3.2 fold
cAMP EC50 [3]: 0.26 nM
Binder: SVSEIQLMHNLGK[ACPC]LNS[ACPC]ERV[APC]WLR[APC]KLQ[ACPC]VHN[ACPC]-NH2 (not fully specified; printed as SVSEIQLMHNLGKXLNSXERVZWLRZKLQXVHNX-NH2) [FcycD6]

Fold PTH [3]: 266 fold
cAMP EC50 [3]: 21.7 nM
B3: CycD6_ACPC(1,5,7) (peptide)
peptide: [ACPC]VSE[ACPC]Q[ACPC]MHNLGK[ACPC]LNS[ACPC]ERVEWLR[APC]KLQDVHN[ACPC]-NH2
modifications: not fully specified; printed as XVSEXQXMHNLGKXLNSXERVEWLRZKLQDVHNX-NH2; also: further β3 residues, positions not shown (marking lost)

Fold PTH [4]: 21.8 fold
cAMP EC50 [4]: 1.77 nM
Binder: [ACPC″]V[Aib]EIQ[ACPC″]MHQ[hArg]AK[ACPC″]LNS[ACPC″]RRV[APC]WLR[APC]KLQ[ACPC″]VHN[ACPC″]-NH2 [M-FcycD6_ACPC(1,7)]

Fold PTH [4]: 5.4 fold
cAMP EC50 [4]: 0.44 nM
Binder: AVAEIQ[ACPC″]MHQ[hArg]AKWLNSMRRVEWLRKKLQDVHNF-NH2 (not fully specified (residues 14, 18, 22, 26, 30, 34)) [M-D6]

Fold PTH [4]: 6.3 fold
cAMP EC50 [4]: 0.52 nM
Binder: [ACPC″]V[Aib]EIQ[ACPC″]MHQ[hArg]AKWLNSMRRVEWLRKKLQDVHNF-NH2 [M-ACPC(1,7)]

cAMP Max [1]: 48 cps × 10-3
Binder: SVSEIQLMHNLGKHLNSMERVEWLRKKLQDVHNF-NH2 (also: five β3 residues, αααβ pattern, positions not given here) [C5]

Fold PTH [3]: 8.7 fold
cAMP EC50 [3]: 0.71 nM
Binder: [ACPC″]VSEIQ[ACPC″]MHNLGK[ACPC″]LNS[ACPC″]ERV[APC]WLR[APC]KLQ[ACPC″]VHN[ACPC″]-NH2 [FcycD6_ACPC(1,7)]

cAMP Max [1]: 54 cps × 10-3
Binder: SVSEIQLMHNLGKHLNSMERVEWLRKKLQDVHNF-NH2 (not fully specified (residue 19)) [A5]

Fold PTH [3]: 2040 fold
cAMP EC50 [3]: 167 nM
B4: D6_ACPC(1,5,7) (peptide)
peptide: [ACPC]VSE[ACPC]Q[ACPC]MHNLGKWLNSMERVEWLRKKLQDVHNF-NH2
modifications: not fully specified; printed as XVSEXQXMHNLGKWLNSMERVEWLRKKLQDVHNF-NH2; also: D6 β3 residues, positions not shown (marking lost)

— patent US20140378382A1 (WISCONSIN ALUMNI RESEARCH FOUNDATION, published 2014)
